In experiment [1] the target is T1, von Willebrand factor (vWF), purified human (human, UniProt P04275 764-2813).
T1 construct: Purified vWF in the flow cytometry and capillary adhesion assays; the vWF of the donor's plasma in the assays with platelet-rich plasma; also called purified vWF
Nature of the experiment: flow cytometry of CHO cells with purified VWF and ristocetin, anti-VWF monoclonal antibody. The procedure: Flow Cytometric Analysis of VWF Binding to GPIb-IX-expressing Cells—CHO cells expressing wild type (1b9) and mutant GPIb-IX were grown to confluence to synchronize cell growth. The cells were detached using 0.5 mM EDTA in PBS, pH 7.4. Seventy-five percent of the original volume was then replated in Dulbecco's modified Eagle's medium (DMEM) growth media and cultured for 18 h. For VWF binding assays, cells were detached using 0.5 mM EDTA-PBS, pH 7.4, resuspended to a concentration of 2.25×10⁶ cells/ml and incubated in modified Tyrode's buffer (2.5 mM Hepes, 12.1 mM NaHCO₃, 2.36 mM KCl, 0.136 M NaCl, 1 mM CaCl₂, 1 mM MgCl₂, 0.1% D-glucose, 1% BSA, pH 7.4) for 30 min at 4° C. […] After washing once with Tyrode's buffer, cells were further incubated with 10 μg/ml FITC-labeled SZ-29 (a monoclonal antibody against vWF) in the dark at 22° C. for 30 min and then analyzed by flow cytometry. […]
The cells were then analyzed by flow cytometry without washing. […]
To determine the roles of the above described two phosphoserine residues in regulating ligand binding function of GPIb-IX, CHO cell lines bearing wild type and the mutants of GPIb-IX were incubated with purified VWF in the presence of ristocetin (a VWF modulator that induces VWF binding to GPIb-IX). Binding of VWF was determined by flow cytometry using an anti-VWF monoclonal antibody. […]

Experiment [2] has as its target maltose-binding protein (MBP), conjugated to control beads (UniProt P0AEX9 27-392 = MBP). Nature of the experiment: bead pull-down from platelet lysate, anti-GPIbα immunoblot. The procedure: 14-3-3 binding to GPIb-IX. Binding of GPIb-IX to 14-3-3-conjugated beads were performed as previously described (Du et al., J. Biol. Chem., 271:7362-7367 (1996)). Briefly, 14-3-3-conjugated Sepharose 4B beads and maltose-binding protein (MBP)-conjugated control beads were preincubated with various concentrations of synthetic peptides at 4° C. for 1 h, and then with platelet lysates for an additional 1 h. The beads were washed three times. Bound GPIb-IX was detected by Western blot with a monoclonal antibody against GPIbα, WM23.
To examine if the above peptides interfere with 14-3-3 interaction with GPIb-IX, platelet lysates were incubated with beads conjugated with recombinant 14-3-3-maltose-binding protein (MBP) fusion protein in the absence or presence of MPαC or control peptides. GPIb-IX from platelet lysates specifically bound to 14-3-3 beads but not the control MBP-conjugated beads (FIG. 1B).

B1: recombinant wild type GPIb-IX expressed in CHO cells (1b9) (receptor)
chain 1: HPICEVSKVASHLEVNCDKRNLTALPPDLPKDTTILHLSENLLYTFSLATLMPYTRLTQLNLDRCELTKLQVDGTLPVLGTLDLSHNQLQSLPLLGQTLPALTVLDVSFNRLTSLPLGALRGLGELQELYLKGNELKTLPPGLLTPTPKLEKLSLANNNLTELPAGLLNGLENLDTLLLQENSLYTIPKGFFGSHLLPFAFLHGNPWLCNCEILYFRRWLQDNAENVYVWKQGVDVKAMTSNVASVQCDNSDKFPVYKYPGKGCPTLGDEGDTDLYDYYPEEDTEGDKVRATRTVVKFPTKAHTTPWGLFYSWSTASLDSQMPSSLHPTQESTKEQTTFPPRWTPNFTLHMESITFSKTPKSTTEPTPSPTTSEPVPEPAPNMTTLEPTPSPTTPEPTSEPAPSPTTPEPTPIPTIATSPTILVSATSLITPKSTFLTTTKPVSLLESTKKTIPELDQPPKLRGVLQGHLESSRNDPFLHPDFCCLLPLGFYVLGLFWLLFASVVLILLLSWVGHVKPQALDSGQGAALTTATQTTHLELQRGRQVTVPRAWLLFLRGSLPTFRSSLFLWVRPNGRVGPLVAGRRPSALSQGRGQDLLSTVSIRYSGHSL
chain 2: CPAPCSCAGTLVDCGRRGLTWASLPTAFPVDTTELVLTGNNLTALPPGLLDALPALRTAHLGANPWRCDCRLVPLRAWLAGRPERAPYRDLRCVAPPALRGRLLPYLAEDELRAACAPGPLCWGALAAQLALLGLGLLHALLLVLLLCRLRRLRARARARAAARLSLTDPLVAERAGTDES
chain 3: TKDCPSPCTCRALETMGLWVDCRGHGLTALPALPARTRHLLLANNSLQSVPPGAFDHLPQLQTLDVTQNPWHCDCSLTYLRLWLEDRTPEALLQVRCASPSLAAHGPLGRLTGYQLGSCGWQLQASWVRPGVLWDVALVAVAALGLALLAGLLCATTEALD
modifications: Ser166 phosphorylated in CHO cells, as the filing says; phosphoserine 609, as the filing calls it
notes: whole, on cells; On intact CHO cells in flow cytometry and adhesion; in Triton X-100 lysate in the co-immunoprecipitation; No GPV
With B1, the binding result in experiment [1] is reported as “binds”.

B2: GPIb-IX with wild type GPIbβ and GPIX and GPIbα S609A, expressed in CHO cells (S609A) (receptor)
chain 1: HPICEVSKVASHLEVNCDKRNLTALPPDLPKDTTILHLSENLLYTFSLATLMPYTRLTQLNLDRCELTKLQVDGTLPVLGTLDLSHNQLQSLPLLGQTLPALTVLDVSFNRLTSLPLGALRGLGELQELYLKGNELKTLPPGLLTPTPKLEKLSLANNNLTELPAGLLNGLENLDTLLLQENSLYTIPKGFFGSHLLPFAFLHGNPWLCNCEILYFRRWLQDNAENVYVWKQGVDVKAMTSNVASVQCDNSDKFPVYKYPGKGCPTLGDEGDTDLYDYYPEEDTEGDKVRATRTVVKFPTKAHTTPWGLFYSWSTASLDSQMPSSLHPTQESTKEQTTFPPRWTPNFTLHMESITFSKTPKSTTEPTPSPTTSEPVPEPAPNMTTLEPTPSPTTPEPTSEPAPSPTTPEPTPIPTIATSPTILVSATSLITPKSTFLTTTKPVSLLESTKKTIPELDQPPKLRGVLQGHLESSRNDPFLHPDFCCLLPLGFYVLGLFWLLFASVVLILLLSWVGHVKPQALDSGQGAALTTATQTTHLELQRGRQVTVPRAWLLFLRGSLPTFRSSLFLWVRPNGRVGPLVAGRRPSALSQGRGQDLLSTVSIRYSGHAL
chain 2: CPAPCSCAGTLVDCGRRGLTWASLPTAFPVDTTELVLTGNNLTALPPGLLDALPALRTAHLGANPWRCDCRLVPLRAWLAGRPERAPYRDLRCVAPPALRGRLLPYLAEDELRAACAPGPLCWGALAAQLALLGLGLLHALLLVLLLCRLRRLRARARARAAARLSLTDPLVAERAGTDES
chain 3: TKDCPSPCTCRALETMGLWVDCRGHGLTALPALPARTRHLLLANNSLQSVPPGAFDHLPQLQTLDVTQNPWHCDCSLTYLRLWLEDRTPEALLQVRCASPSLAAHGPLGRLTGYQLGSCGWQLQASWVRPGVLWDVALVAVAALGLALLAGLLCATTEALD
notes: whole, on cells; also called S609A mutant
Turning to B2, the binding result in experiment [1] is listed as “binds”.

B3: glycoprotein (GP) Ib-IX-V complex (GPIb-IX) of human platelets (receptor)
chain 1: HPICEVSKVASHLEVNCDKRNLTALPPDLPKDTTILHLSENLLYTFSLATLMPYTRLTQLNLDRCELTKLQVDGTLPVLGTLDLSHNQLQSLPLLGQTLPALTVLDVSFNRLTSLPLGALRGLGELQELYLKGNELKTLPPGLLTPTPKLEKLSLANNNLTELPAGLLNGLENLDTLLLQENSLYTIPKGFFGSHLLPFAFLHGNPWLCNCEILYFRRWLQDNAENVYVWKQGVDVKAMTSNVASVQCDNSDKFPVYKYPGKGCPTLGDEGDTDLYDYYPEEDTEGDKVRATRTVVKFPTKAHTTPWGLFYSWSTASLDSQMPSSLHPTQESTKEQTTFPPRWTPNFTLHMESITFSKTPKSTTEPTPSPTTSEPVPEPAPNMTTLEPTPSPTTPEPTSEPAPSPTTPEPTPIPTIATSPTILVSATSLITPKSTFLTTTKPVSLLESTKKTIPELDQPPKLRGVLQGHLESSRNDPFLHPDFCCLLPLGFYVLGLFWLLFASVVLILLLSWVGHVKPQALDSGQGAALTTATQTTHLELQRGRQVTVPRAWLLFLRGSLPTFRSSLFLWVRPNGRVGPLVAGRRPSALSQGRGQDLLSTVSIRYSGHSL
chain 2: CPAPCSCAGTLVDCGRRGLTWASLPTAFPVDTTELVLTGNNLTALPPGLLDALPALRTAHLGANPWRCDCRLVPLRAWLAGRPERAPYRDLRCVAPPALRGRLLPYLAEDELRAACAPGPLCWGALAAQLALLGLGLLHALLLVLLLCRLRRLRARARARAAARLSLTDPLVAERAGTDES
chain 3: TKDCPSPCTCRALETMGLWVDCRGHGLTALPALPARTRHLLLANNSLQSVPPGAFDHLPQLQTLDVTQNPWHCDCSLTYLRLWLEDRTPEALLQVRCASPSLAAHGPLGRLTGYQLGSCGWQLQASWVRPGVLWDVALVAVAALGLALLAGLLCATTEALD
chain 4: QPFPCPPACKCVFRDAAQCSGGDVARISALGLPTNLTHILLFGMGRGVLQSQSFSGMTVLQRLMISDSHISAVAPGTFSDLIKLKTLRLSRNKITHLPGALLDKMVLLEQLFLDHNALRGIDQNMFQKLVNLQELALNQNQLDFLPASLFTNLENLKLLDLSGNNLTHLPKGLLGAQAKLERLLLHSNRLVSLDSGLLNSLGALTELQFHRNHIRSIAPGAFDRLPNLSSLTLSRNHLAFLPSALFLHSHNLTLLTLFENPLAELPGVLFGEMGGLQELWLNRTQLRTLPAAAFRNLSRLRYLGVTLSPRLSALPQGAFQGLGELQVLALHSNGLTALPDGLLRGLGKLRQVSLRRNRLRALPRALFRNLSSLESVQLDHNQLETLPGDVFGALPRLTEVLLGHNSWRCDCGLGPFLGWLRQHLGLVGGEEPPRCAGPGAHAGLPLWALPGGDAECPGPRGPPPRPAADSSSEAPVHPALAPNSSEPWVWAQPVTTGKGQDHSPFWGFYFLLLAVQAMITVIIVFAMIKIGQLFRKLIRERALG
modifications: phosphoserine at Ser609 (the filing says Ser609 is constitutively phosphorylated in resting platelets)
notes: whole, on cells; Native complex of platelets from healthy donors; solubilised in platelet lysate in the 14-3-3 bead pull-down; also called glycoprotein Ib-IX; platelet VWF receptor
B3: in experiment [2], the binding result is “no binding”.

(Values after patent US20090181057A1 (BOARD OF TRUSTEES OF THE UNIVERSITY OF ILLINOIS, published 2009).)
